Consider four substances from patent US20240316154A1.

What all share (assay): cell-based or functional assay
The target in assay [1] is human GFRAL and human RET on HEK293 cells (human) (UniProt Q6UXV0).
Assay [2] has as its target human ErbB4 receptor (NCBI Ref. Seq. No. NP_001036064.1) (human) (UniProt Q15303).
In assay [3] the target is human CNTF receptor (CNTFR) on IMR-32 cells (human) (UniProt P26992).
Assay [4] has as its target IL-2 receptor-dimer pair of the PathHunter IL-2 BioAssay cells.

human CNTF receptor (CNTFR) on IMR-32 cells (human), sequence (P26992 23-342): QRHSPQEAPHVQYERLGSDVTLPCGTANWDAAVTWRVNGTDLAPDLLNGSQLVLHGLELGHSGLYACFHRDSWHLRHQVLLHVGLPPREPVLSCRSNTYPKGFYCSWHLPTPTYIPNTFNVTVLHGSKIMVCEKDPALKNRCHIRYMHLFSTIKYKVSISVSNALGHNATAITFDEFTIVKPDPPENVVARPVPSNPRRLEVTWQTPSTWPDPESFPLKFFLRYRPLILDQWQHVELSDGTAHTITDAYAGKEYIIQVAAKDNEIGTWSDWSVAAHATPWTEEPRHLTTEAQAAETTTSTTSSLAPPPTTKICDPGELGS

“Human GDF15 (from UniProt Q99988 197-308) (ligand)” returned a hGFRAL/RET EC50 (pM), p-ERK1/2 AlphaLISA in assay [1] of 2.85 pM.
With “rhNRG-1 (eurofins cat #92-1091) (from UniProt Q02297 177-241) (ligand)”, the EC50 (ng/mL), PathHunter ErbB4/ErbB4 dimerization assay in assay [2] amounted to 16.5 ng/mL.
In assay [3], “human CNTF (R&D Systems; Cat #257-NT-010) (from UniProt P26441 2-200) (ligand)” came in with a hCNTFR EC50 pM GeoMean (pSTAT3 in IMR-32 cells) of 3.5 pM.
In turn, “Human IL-2 (reference standard of the PathHunter IL-2 BioAssay Kit) (from UniProt P60568 21-153) (ligand)” yielded an EC50 (nM), PathHunter IL-2 BioAssay in assay [4] of 0.13 nM.
